Here are results for 5 molecules from US20200276302A1 (OSAKA UNIVERSITY, published 2020).

Test [1] concerns the target T1, mouse PlexinA1 recombinant protein expressed on Ba/F3 cells (mouse, UniProt P70206 25-1290).
T1 construct: also called Mouse PlexinA1/BaF3; mouse PlexinA1-expressing cell line
The test can be described thus: cell ELISA on mouse PlexinA1-expressing Ba/F3 cells against Ba/F3 cells. Here is the method:
The antibodies obtained above were subjected to cell ELISA by the following procedure. Initially, 384-well plates were prepared, and mouse PlexinA1-expressing Ba/F3 cells and Ba/F3 cells (see Example 11) were each captured onto the bottom of different wells. After washing each well of the plates with PBS, the prepared antibodies were added at 20 μL/well, and the mixture was allowed to stand at room temperature for 1 hour. Then, each well was washed with 0.05% Tween 20-PBS, HRP-labeled anti-rabbit IgG antibody (Betyl, A120-101P) diluted 10000 times with 2% FBS-PBS was added at 20 μL/well, and the mixture was allowed to stand at room temperature for 1 hour. After washing each well of the plates with 0.05% Tween 20-PBS, the substrate solution (ABTS peroxidase substrate system) was dispensed at 20 μL/well to develop color for 1 hour at room temperature. Then, binding of the antibodies to mouse PlexinA1 was confirmed by measuring absorbance at 405 nm using SpectraMax from Molecular Devices, LLC.
Background: In an ELISA, binding on a coated surface is turned into a signal by an enzyme label.

The target in test [2] is soluble mouse PlexinA1 protein (mouse, UniProt P70206 28-1242). The test can be described thus: BLI (OctetRED384), antibody on Protein G biosensor, mouse PlexinA1 at 260 nM. The protocol: Note that the L chains of the antibodies derived from the human antibody naive library were not chimerized.
Specifically, the antibodies adjusted to 10 µg/mL by 10× diluted HBS-EP+(GE healthcare, BR-1006-69) were immobilized onto Protein G biosensors (ForteBIO), and human and mouse PlexinA1 adjusted to 260 nM with HBS-EP+ were applied thereto. The Protein G biosensors were regenerated using 10 mmol/L Glycine-HCl, pH 1.5 (GE Healthcare, BR-1003-54). After the measurement, analytical software Data analysis 7.0 (ForteBIO) was used to compute amounts of binding (FIG. 5). […] In FIG. 5, the vertical axis represents amounts of binding to human and mouse PlexinA1.

Sequence of soluble mouse PlexinA1 protein (P70206 other isoform, or with tags, fused parts or gaps limits assumed): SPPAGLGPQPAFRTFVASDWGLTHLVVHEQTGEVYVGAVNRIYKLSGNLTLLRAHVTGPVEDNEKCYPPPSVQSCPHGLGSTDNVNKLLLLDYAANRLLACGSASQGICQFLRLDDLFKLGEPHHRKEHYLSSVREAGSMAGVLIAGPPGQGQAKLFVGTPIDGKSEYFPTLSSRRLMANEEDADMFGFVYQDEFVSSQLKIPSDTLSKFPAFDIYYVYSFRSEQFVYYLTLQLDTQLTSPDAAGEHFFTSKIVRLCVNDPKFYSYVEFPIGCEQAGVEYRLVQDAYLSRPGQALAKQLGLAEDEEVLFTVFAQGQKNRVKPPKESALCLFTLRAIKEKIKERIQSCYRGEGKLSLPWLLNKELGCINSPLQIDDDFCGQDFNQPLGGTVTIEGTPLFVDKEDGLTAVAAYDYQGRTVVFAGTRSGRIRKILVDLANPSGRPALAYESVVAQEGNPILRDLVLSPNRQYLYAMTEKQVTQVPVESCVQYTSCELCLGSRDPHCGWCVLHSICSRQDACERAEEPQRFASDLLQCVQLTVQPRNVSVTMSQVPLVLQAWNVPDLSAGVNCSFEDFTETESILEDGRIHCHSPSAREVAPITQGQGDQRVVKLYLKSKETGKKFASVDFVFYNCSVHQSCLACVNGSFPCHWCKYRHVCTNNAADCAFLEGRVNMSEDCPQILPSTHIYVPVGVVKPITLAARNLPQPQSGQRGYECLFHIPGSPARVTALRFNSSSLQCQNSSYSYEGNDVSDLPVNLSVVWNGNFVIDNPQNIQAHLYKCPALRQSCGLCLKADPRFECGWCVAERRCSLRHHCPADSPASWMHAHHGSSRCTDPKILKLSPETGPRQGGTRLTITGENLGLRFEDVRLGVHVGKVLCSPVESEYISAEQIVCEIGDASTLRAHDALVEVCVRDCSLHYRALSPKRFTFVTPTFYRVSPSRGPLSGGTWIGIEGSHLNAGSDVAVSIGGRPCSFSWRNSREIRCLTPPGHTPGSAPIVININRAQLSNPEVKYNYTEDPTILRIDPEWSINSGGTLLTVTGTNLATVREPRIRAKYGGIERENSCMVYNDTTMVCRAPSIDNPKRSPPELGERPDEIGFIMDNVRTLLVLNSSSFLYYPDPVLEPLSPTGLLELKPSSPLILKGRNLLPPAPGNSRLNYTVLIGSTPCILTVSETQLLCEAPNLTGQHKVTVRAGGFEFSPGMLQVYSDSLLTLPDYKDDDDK
T1 sequence (P70206 other isoform, or with tags, fused parts or gaps limits assumed): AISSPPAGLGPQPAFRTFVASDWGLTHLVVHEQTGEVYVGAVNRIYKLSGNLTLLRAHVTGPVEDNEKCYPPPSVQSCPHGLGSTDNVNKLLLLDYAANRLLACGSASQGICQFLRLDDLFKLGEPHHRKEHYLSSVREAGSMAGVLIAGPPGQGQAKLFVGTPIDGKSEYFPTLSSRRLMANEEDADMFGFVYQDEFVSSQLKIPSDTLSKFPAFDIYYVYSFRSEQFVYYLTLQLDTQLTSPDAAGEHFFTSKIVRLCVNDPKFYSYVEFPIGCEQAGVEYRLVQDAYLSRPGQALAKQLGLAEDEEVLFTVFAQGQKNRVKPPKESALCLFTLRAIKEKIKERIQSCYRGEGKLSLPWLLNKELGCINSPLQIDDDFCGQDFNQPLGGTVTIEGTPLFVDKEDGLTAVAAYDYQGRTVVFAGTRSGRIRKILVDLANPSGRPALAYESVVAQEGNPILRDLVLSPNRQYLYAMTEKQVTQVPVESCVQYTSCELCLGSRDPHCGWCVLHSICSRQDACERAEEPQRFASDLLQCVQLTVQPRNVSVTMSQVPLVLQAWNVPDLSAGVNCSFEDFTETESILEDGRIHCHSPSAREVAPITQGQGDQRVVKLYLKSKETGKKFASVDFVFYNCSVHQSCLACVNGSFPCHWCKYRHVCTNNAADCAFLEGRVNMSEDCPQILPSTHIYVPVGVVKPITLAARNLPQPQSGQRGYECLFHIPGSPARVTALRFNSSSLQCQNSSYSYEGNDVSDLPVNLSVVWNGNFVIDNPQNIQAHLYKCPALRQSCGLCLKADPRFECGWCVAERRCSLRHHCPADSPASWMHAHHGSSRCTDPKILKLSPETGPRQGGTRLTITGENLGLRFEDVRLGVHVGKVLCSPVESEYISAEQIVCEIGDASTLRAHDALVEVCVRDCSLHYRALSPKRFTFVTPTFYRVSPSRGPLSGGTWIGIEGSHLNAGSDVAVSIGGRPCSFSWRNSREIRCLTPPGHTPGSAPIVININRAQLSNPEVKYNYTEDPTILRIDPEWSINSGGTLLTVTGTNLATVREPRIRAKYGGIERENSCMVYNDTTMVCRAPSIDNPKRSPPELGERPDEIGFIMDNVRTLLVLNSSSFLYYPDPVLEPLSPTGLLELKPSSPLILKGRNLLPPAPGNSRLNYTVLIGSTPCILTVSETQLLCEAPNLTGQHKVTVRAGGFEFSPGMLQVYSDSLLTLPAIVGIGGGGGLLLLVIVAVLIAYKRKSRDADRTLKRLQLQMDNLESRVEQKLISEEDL

B1: anti-mouse PlexinA1 antibody PXB693 (antibody)
heavy: QSVEESGGRLVTPGTPLTLTCTVSGFSLSSSAMTWVRQAPGKGLEWIGIINNSNIAAYASWTKGRFTISKTSTTVDLKITSPIIEDTATYFCARGDVGTTHYFNIWGPGTLVTVSSGQPKAPSVFPLAPCCGDTPSSTVTLGCLVKGYLPEPVTVTWNSGTLTNGVRTFPSVRQSSGLYSLSSVVSVTSSSQPVTCNVAHPATNTKVDKTVAPSTCSKPMCPPPELLGGPSVFIFPPKPKDTLMISRTPEVTCVVVDVSQDDPEVQFTWYINNEQVRTARPPLREQQFNSTIRVVSTLPIAHQDWLRGKEFKCKVHNKALPAPIEKTISKARGQPLEPKVYTMGPPREELSSRSVSLTCMINGFYPSDISVEWEKNGKAEDNYKTTPTVLDSDGSYFLYSKLSVPTSEWQRGDVFTCSVMHEALHNHYTQKSISRSPGK
light: AAVLTQTPSPVSAVVGGTVSISCQSSKSVYNNNWLSWFQQKPGQPPKLLIYGASTLASGVPSRFKGSGSGTQFTLAISDVQCDDAATYYCAGGYINSDNFAFGGGTEVVVKGDPVAPTVLIFPPAADQVATGTVTIVCVANKYFPDVTVTWEVDGTTQTTGIENSKTPQNSADCTYNLSSTLTLTSTQYNSHKEYTCKVTQGTTSVVQSFNRGDC
For the molecule B1, in test [1], the binding result is given as “binds”.

B2: mouse chimeric anti-mouse PlexinA1 antibody PXB361b-mFc (antibody, mouse IgG1, kappa)
heavy: QSLEESGGDLVKPEGSLTLSCTASGFTISSSYWICWVRQAPGKGLEWIACIYVGSGDGYTYYASWAKGRFTISKTSSTTVTLRMTSLTAADTATYFCARGGDGGVGGFDFFDPWGPGTLVTVSSAKTTPPSVYPLAPGSAAQTNSMVTLGCLVKGYFPEPVTVTWNSGSLSSGVHTFPAVLQSDLYTLSSSVTVPSSTWPSETVTCNVAHPASSTKVDKKIVPRDCGCKPCICTVKEVSKVFIFPPKPKDVLTITLTPKVTCVVVDISKDDPEVQFSWFVDDVEVHTAQTQPREEQFNSTFRSVSELPIMHQDWLNGKEFKCRVNSAAFPAPIEKTISKTKGRPKAPQVYTIPPPKEQMAKDKVSLTCMITDFFPEDITVEWQWNGQPAENYKNTQPIMDTDGSYFVYSKLNVQKSNWEAGNTFTCSVLHEGLHNHHTEKSLSHSPGK
light: DVVLTQTPASVSEPVGGTVTIKCQATESINRNCAWYQQKPGQPPKLLIYRASTLASGVPSRFKGSGSGTEFTLTISDLECADAATYYCQCTDYGTYYVAFGGGTEVVVKRADAAPTVSIFPPSSEQLTSGGASVVCFLNNFYPKDINVKWKIDGSERQNGVLNSWTDQDSKDSTYSMSSTLTLTKDEYERHNSYTCEATHKTSTSPIVKSFNRNEC
notes: Rabbit variable regions on mouse IgG1 heavy and mouse light chain constant regions; Antagonist antibody
Turning to B2, the binding result in test [2] was “binds”.

B3: mouse chimeric anti-mouse PlexinA1 antibody PXB693-mFc (antibody, mouse IgG2a, kappa)
heavy: QSVEESGGRLVTPGTPLTLTCTVSGFSLSSSAMTWVRQAPGKGLEWIGIINNSNIAAYASWTKGRFTISKTSTTVDLKITSPIIEDTATYFCARGDVGTTHYFNIWGPGTLVTVSSAKTTAPSVYPLAPVCGDTTGSSVTLGCLVKGYFPEPVTLTWNSGSLSSGVHTFPAVLQSDLYTLSSSVTVTSSTWPSQSITCNVAHPASSTKVDKKIEPRGPTIKPCPPCKCPAPNLRRGPKVFIFPPKIKDVLMISLSPIVTCVVVDVSEDDPDVQISWFVNNVEVHTAQTQTHREDYNSTLRVVSALPIQHQDWMSGKEFKCKVNNKDLPAPIERTISKPKGSVRAPQVYVLPPPEEEMTKKQVTLTCMVTDFMPEDIYVEWTNNGKTELNYKNTEPVLDSDGSYFMYSKLRVEKKNWVERNSYSCSVVHEGLHNHHTTKSFSRTPGK
light: AAVLTQTPSPVSAVVGGTVSISCQSSKSVYNNNWLSWFQQKPGQPPKLLIYGASTLASGVPSRFKGSGSGTQFTLAISDVQCDDAATYYCAGGYINSDNFAFGGGTEVVVKRADAAPTVSIFPPSSEQLTSGGASVVCFLNNFYPKDINVKWKIDGSERQNGVLNSWTDQDSKDSTYSMSSTLTLTKDEYERHNSYTCEATHKTSTSPIVKSFNRNEC
notes: Rabbit variable regions on mouse IgG2a heavy and mouse light chain constant regions; Agonist antibody
Regarding B3, the binding result in test [2] is given as “binds”.

B4: mouse chimeric human/mouse cross-reactive PlexinA1 antibody 359B2-2-3-6-mFc (antibody, mouse IgG2a, lambda, V domains shown)
VH: QVQLVQSGAEVKKPGASVKVSCKASGYTFTSYYMHWVRQAPGQGLEWMGIINPSGGSTSYAQKFQGRVTMTRDTSTSTVYMELSSLRSEDTAVYYCARAPGHYYYGMDVWGQGTTVTVSS
VL: SYELTQPPSVSVSPGQTASITCSGDKLEDKYASWYQLKPGHSPVLVIYQDSKRPSGIPERFSGSNSGNTATLTISGTQAMDEADYYCRAWDSNTGDVVFGGGTKLTVLR
notes: Mouse IgG2a heavy chain constant region; human light chain kept
For B4, the binding result in test [2] is “binds”.

B5: anti-mouse PlexinA1 antibody PXB361b (antibody)
heavy: QSLEESGGDLVKPEGSLTLSCTASGFTISSSYWICWVRQAPGKGLEWIACIYVGSGDGYTYYASWAKGRFTISKTSSTTVTLRMTSLTAADTATYFCARGGDGGVGGFDFFDPWGPGTLVTVSSGQPKAPSVFPLAPCCGDTPSSTVTLGCLVKGYLPEPVTVTWNSGTLTNGVRTFPSVRQSSGLYSLSSVVSVTSSSQPVTCNVAHPATNTKVDKTVAPSTCSKPMCPPPELLGGPSVFIFPPKPKDTLMISRTPEVTCVVVDVSQDDPEVQFTWYINNEQVRTARPPLREQQFNSTIRVVSTLPIAHQDWLRGKEFKCKVHNKALPAPIEKTISKARGQPLEPKVYTMGPPREELSSRSVSLTCMINGFYPSDISVEWEKNGKAEDNYKTTPTVLDSDGSYFLYSKLSVPTSEWQRGDVFTCSVMHEALHNHYTQKSISRSPGK
light: DVVLTQTPASVSEPVGGTVTIKCQATESINRNCAWYQQKPGQPPKLLIYRASTLASGVPSRFKGSGSGTEFTLTISDLECADAATYYCQCTDYGTYYVAFGGGTEVVVKGDPVAPTVLIFPPAADQVATGTVTIVCVANKYFPDVTVTWEVDGTTQTTGIENSKTPQNSADCTYNLSSTLTLTSTQYNSHKEYTCKVTQGTTSVVQSFNRGDC
notes: Antagonist antibody
Regarding B5, in test [1], the binding result is “binds”.
